Assay results as given in patent publication US9388243B2, “Method of target membrane protein depletion” (Samsung Electronics Co., Ltd., priority 2013, dated 2016).

Molecular target: T1, EGFR in MKN45 stomach cancer cells (Homo sapiens, UniProt P00533)
T1 construct: endogenous in cells; host or cells: MKN45 (JCRB)
Assay: Confocal microscopy of EGFR internalization and degradation in MKN45 cells
Assay type: cell-based
Settings: MKN45, 5 μg/ml each, 4 hrs, confocal images (FIGS. 5-7)
Procedure: Each antibody was used at a density of 5 μg/ml/well, whether individually or in combination. For control, the cells were treated with PBS only. The cells were immobilized onto the plates by treatment with 4% (v/v) formaldehyde for 15 min, washed three times with PBS, and then blocked with a blocking buffer (0.5% triton x-100 and 5% donkey serum) at room temperature for 1 hr. […] The cells were washed again three times with PBS, and incubated at room temperature for 1 hr with 100 μl of a 1:2000 dilution of a secondary antibody (A21433, Invitrogen). After being washed three times with PBS, the cells were counterstained with a DAPI-containing mounting medium (H-1200, Vector Lab), and examined by Confocal microscopy (Zeiss, LSM710).
Comparison was made of degradation efficiency between the bispecific antibody and a combination of the monospecific antibodies.

B1: anti-EGFR ab: scFv-Fc antibody recognizing EGFR: SEQ ID NO: 109 and 111 variable domains fused to N-terminus of IgG2 Fc (antibody, V domains shown)
VH: QVQLVQSGAEVKKPGSSVKVSCKASGFTFTDYKIHWVRQAPGQGLEWMGYFNPNSGYSTYAQKFQGRVTITADKSTSTAYMELSSLRSEDTAVYYCARLSPGGYYVMDAWGQGTTVTVSS
VL: DIQMTQSPSSLSASVGDRVTITCRASQGINNYLNWYQQKPGKAPKRLIYNTNNLQTGVPSRFSGSGSGTEFTLTISSLQPEDFATYYCLQHNSFPTFGQGTKLEIKRT
modifications: IgG2 Fc without entry; linker; Synthetic (heavy-chain variable region of anti-EGFR antibody); Synthetic (light-chain variable region of anti-EGFR antibody)
internalization into a cell and degradation of EGFR: induced by neither
internalization into a cell and degradation of EGFR (listed as anti-EGFR antibody): did not provoke the degradation of EGFR at all
